Test results from PMC13458718, “HSV-1 origin binding protein UL9 forms intermolecular DNA tethers and intramolecular DNA loops” (Nature Communications, 2026).

Columns and labels:
[1] = target: T1, HSV-1 UL9 (origin-binding protein UL9) (Human alphaherpesvirus 1 strain 17, UniProt P10193); assay: single-molecule TIRF (ALEX), UL9-atto647N dwell time on oriS DNA; settings: 1 mM ATPγS, 20 nM UL9-atto647N, 1 mM MgCl2, pH 7.5; not an affinity constant
T1 construct: full ORF from plasmid pCM-UL9, C-terminal 3C-ybbR-TEV-StrepII tag, insect cells (Sf9/High5), StrepTrap and heparin; dimer; tag kept in unlabeled protein, TEV added on atto647N labelling

[2] = target: T2, UL9 origin-binding protein (Human herpesvirus 1 (HSV-1)) (UniProt P10193); assay: EMSA; settings: C6-amino-dT at 5' end of strand 1 and internal (position 10) in strand 2; UL9 buffer: 40 mM Tris-Cl pH 7.5, 50 mM NaCl, 50 mM K-glutamate, 1 mM MgCl2, 0.5 mM DTT, 0.1 mg/ml BSA; EMSA at room temperature, 5 min; TIRF with oxygen …
T2 sequence: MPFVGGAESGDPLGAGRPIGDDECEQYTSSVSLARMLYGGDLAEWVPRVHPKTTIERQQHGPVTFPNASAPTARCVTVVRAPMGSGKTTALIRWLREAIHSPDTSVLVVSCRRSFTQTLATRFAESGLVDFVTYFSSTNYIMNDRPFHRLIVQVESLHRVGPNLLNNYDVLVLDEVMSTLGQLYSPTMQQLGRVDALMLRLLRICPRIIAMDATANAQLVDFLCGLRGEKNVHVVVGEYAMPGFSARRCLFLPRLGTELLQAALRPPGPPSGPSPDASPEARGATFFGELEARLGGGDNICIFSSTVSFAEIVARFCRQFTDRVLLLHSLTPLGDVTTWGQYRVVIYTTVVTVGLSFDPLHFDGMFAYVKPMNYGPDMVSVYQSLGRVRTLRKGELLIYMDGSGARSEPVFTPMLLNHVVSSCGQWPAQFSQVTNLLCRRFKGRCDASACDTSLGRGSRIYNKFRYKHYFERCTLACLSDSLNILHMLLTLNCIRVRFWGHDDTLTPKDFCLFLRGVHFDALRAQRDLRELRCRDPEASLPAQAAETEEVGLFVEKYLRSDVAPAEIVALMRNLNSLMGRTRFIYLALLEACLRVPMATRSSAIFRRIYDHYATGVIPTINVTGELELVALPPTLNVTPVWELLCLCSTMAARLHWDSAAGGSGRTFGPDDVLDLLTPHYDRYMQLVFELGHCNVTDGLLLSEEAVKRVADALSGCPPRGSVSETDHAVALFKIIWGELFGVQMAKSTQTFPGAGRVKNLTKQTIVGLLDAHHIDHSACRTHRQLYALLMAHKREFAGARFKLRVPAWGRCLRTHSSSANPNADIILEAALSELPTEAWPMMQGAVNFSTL

[3] = target: T3, UL9-atto647N (Human herpesvirus 1 (HSV-1)) (UniProt P10193); assay: single-molecule TIRF/FRET; settings: C6-amino-dT at 5' end of strand 1 and internal (position 10) in strand 2; UL9 buffer: 40 mM Tris-Cl pH 7.5, 50 mM NaCl, 50 mM K-glutamate, 1 mM MgCl2, 0.5 mM DTT, 0.1 mg/ml BSA; EMSA at room temperature, 5 min; TIRF with oxygen …
T3 sequence: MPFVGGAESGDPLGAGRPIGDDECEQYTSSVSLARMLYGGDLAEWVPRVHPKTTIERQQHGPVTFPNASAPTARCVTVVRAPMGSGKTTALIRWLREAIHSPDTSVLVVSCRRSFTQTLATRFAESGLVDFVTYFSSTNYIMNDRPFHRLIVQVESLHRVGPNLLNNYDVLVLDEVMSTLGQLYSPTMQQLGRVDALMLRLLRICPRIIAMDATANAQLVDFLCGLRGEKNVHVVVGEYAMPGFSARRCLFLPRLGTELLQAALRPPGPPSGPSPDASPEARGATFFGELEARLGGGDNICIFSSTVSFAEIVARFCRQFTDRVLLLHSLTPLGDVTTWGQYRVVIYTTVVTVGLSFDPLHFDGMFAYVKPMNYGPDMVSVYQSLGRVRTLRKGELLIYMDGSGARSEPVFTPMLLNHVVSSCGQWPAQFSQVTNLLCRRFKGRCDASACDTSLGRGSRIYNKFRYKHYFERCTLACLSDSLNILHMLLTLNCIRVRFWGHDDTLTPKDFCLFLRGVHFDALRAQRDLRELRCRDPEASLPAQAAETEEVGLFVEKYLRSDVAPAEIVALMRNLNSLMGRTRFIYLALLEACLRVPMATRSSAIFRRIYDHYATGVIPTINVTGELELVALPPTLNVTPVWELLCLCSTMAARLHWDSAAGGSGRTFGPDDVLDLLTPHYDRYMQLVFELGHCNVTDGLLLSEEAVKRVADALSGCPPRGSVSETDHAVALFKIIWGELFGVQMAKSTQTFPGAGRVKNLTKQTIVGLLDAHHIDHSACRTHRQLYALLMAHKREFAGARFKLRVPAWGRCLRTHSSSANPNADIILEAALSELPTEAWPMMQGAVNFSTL

[4] = target: UL9 origin-binding protein (Human herpesvirus 1 (HSV-1), UniProt P10193 1-851); assay: single-molecule TIRF DNA capture; trans tethering to immobilized oriS (30.0 ± 6.9% of molecules); 20 nM UL9, no ATP; UL9 buffer: 40 mM Tris-Cl pH 7.5, 50 mM NaCl, 50 mM K-glutamate, 1 mM MgCl2, 0.5 mM DTT, 0.1 mg/ml BSA; EMSA at room temperature, 5 min; TIRF with oxygen scavenger; settings: protein: recombinant; tags: C-terminal 3C-ybbR-TEV-StrepII; chain copies: 2; label: Cy5 on strand 1; strand 1 5' overhang 1 nt (amino-dT)
[5] = target: the molecule itself; assay: single-molecule photobleaching steps (prism-TIRF with alternating laser excitation)

Nc1ncnc2c1ncn2[C@@H]1O[C@H](COP(=O)(O)OP(=O)(O)OP(O)(O)=S)[C@@H](O)[C@H]1O [ATPγS]
τon, avg [1]: 4.2 ± 0.1 s

TCCAGTGCTCGCACTTCGCCCTAATAATATATATATATTGGGACGAAGTGCGAACGCTTCGCGTTCTCACTTC / AAAAAAAAATGAAGTGAGAACGCGAAGCGTTCGCACTTCGTCCCAATATATATATATTATTAGGGCGAAGTGCGAGCACTGG [oriS template AM057/AM071]
K half [2]: 13 nM | Kd [2]: 131 nM | Kd [3]: 31.9 nM

B1: Cy5-oriS capture DNA AM057/AM058 (dsDNA)
DNA 1: TCCAGTGCTCGCACTTCGCCCTAATAATATATATATATTGGGACGAAGTGCGAACGCTTCGCGTTCTCACTTC
DNA 2: GAAGTGAGAACGCGAAGCGTTCGCACTTCGTCCCAATATATATATATTATTAGGGCGAAGTGCGAGCACTGG
modifications: C6-amino-dT at 5' end of strand 1
binding result [4]: binds

B2: HSV-1 origin-binding protein UL9 labelled at its C-terminus with atto647N through a ybbR-tag (natural protein)
chain: MPFVGGAESGDPLGAGRPIGDDECEQYTSSVSLARMLYGGDLAEWVPRVHPKTTIERQQHGPVTFPNASAPTARCVTVVRAPMGSGKTTALIRWLREAIHSPDTSVLVVSCRRSFTQTLATRFAESGLVDFVTYFSSTNYIMNDRPFHRLIVQVESLHRVGPNLLNNYDVLVLDEVMSTLGQLYSPTMQQLGRVDALMLRLLRICPRIIAMDATANAQLVDFLCGLRGEKNVHVVVGEYAMPGFSARRCLFLPRLGTELLQAALRPPGPPSGPSPDASPEARGATFFGELEARLGGGDNICIFSSTVSFAEIVARFCRQFTDRVLLLHSLTPLGDVTTWGQYRVVIYTTVVTVGLSFDPLHFDGMFAYVKPMNYGPDMVSVYQSLGRVRTLRKGELLIYMDGSGARSEPVFTPMLLNHVVSSCGQWPAQFSQVTNLLCRRFKGRCDASACDTSLGRGSRIYNKFRYKHYFERCTLACLSDSLNILHMLLTLNCIRVRFWGHDDTLTPKDFCLFLRGVHFDALRAQRDLRELRCRDPEASLPAQAAETEEVGLFVEKYLRSDVAPAEIVALMRNLNSLMGRTRFIYLALLEACLRVPMATRSSAIFRRIYDHYATGVIPTINVTGELELVALPPTLNVTPVWELLCLCSTMAARLHWDSAAGGSGRTFGPDDVLDLLTPHYDRYMQLVFELGHCNVTDGLLLSEEAVKRVADALSGCPPRGSVSETDHAVALFKIIWGELFGVQMAKSTQTFPGAGRVKNLTKQTIVGLLDAHHIDHSACRTHRQLYALLMAHKREFAGARFKLRVPAWGRCLRTHSSSANPNADIILEAALSELPTEAWPMMQGAVNFSTL
modifications: atto647N (CoA-conjugated dye, attached by Sfp transferase) on the C-terminal ybbR tag
notes: also called UL9-atto647N; not shown: ybbR, C-terminal, kept; strepII, C-terminal, cleaved
stoichiometry N [5]: 2
